Patent publication EP4631972A1, “SITE-SPECIFIC COUPLED PEGYLATED INTERLEUKIN-2 MUTANT WITH RECEPTOR AFFINITY PREFERENCE AND USE THEREOF” (priority 2022, dated 2024)

Legend:
[1] = system: Treg cells; test: Pharmacodynamic study in cynomolgus monkeys, peripheral Treg cells; format: in vivo; settings: doses ≤400 µg/kg
Excerpt: For information on administration and grouping, see Table 14.

[2] = Pharmacokinetic study in cynomolgus monkeys; settings: cynomolgus monkey
Experimental: Blood was collected before and after administration (4h, 8h, 24h, 48h, 72h, 120h, 168h, 240h, 336h) in the first cycle and after administration (8h, 24h, 48h, 72h, 120h, 168h, 240h) in the second cycle to detect plasma drug concentration.

[3] = mouse, in vivo, sc, 1 mg/kg
Experimental: (§1) Balb/c mice were purchased, with 4 mice in each group. Each IL-2 mutant to be tested was administered subcutaneously once at a dose of 1 mg/kg. Blood was collected from the orbit at different time points after administration, and the plasma was separated and the plasma drug concentration was detected by ELISA. The main pharmacokinetic parameters were calculated, and C-T curve was plotted.

[4] = system: Treg cells; test: Pharmacodynamic (PD) study in mice, peripheral Treg cells; format: in vivo, Balb/c mice; settings: 1 mg/kg s.c. single administration
Experimental: In this example, the pharmacodynamics (PD) of each IL-2 mutant obtained in Example 6 was studied in mice after a single administration to mice. SPF grade Balb/c mice were purchased and randomly divided into groups according to body weight, with 3 mice in each group. Drug administration started on the day of grouping. The dosing and grouping information is shown in Table 9, where G1-G5 were administered once, G6 and G7 were administered once a day, for a total of three doses. 30 µl of blood was taken from each group of mice, for PEGylated IL2 mutants and the negative control, blood was collected on day 0 (pre-administration), day 2, 3, 4, 5, 6 and 7 (only for G3, G4 and G5), and for IL2 and IL2-N88R, blood was collected on day 0 (pre-administration), day 1, 2 and 3. The number of each cell subpopulation was measured by flow cytometry. Antibodies against the staining marker used in flow cytometry are shown in Table 10, and the gating settings are shown in Table 11. Table 9 Dosing and grouping table for single-dose PD study in mice

[5] = system: Treg cells; test: P-STAT5 activation in Treg cells of human PBMCs (flow cytometry); format: cell-based; settings: P-STAT5 MFI in CD3+/CD4+/CD25+ cells of human PBMCs, 30 min stimulation
Experimental: In the example, the activation effect of each mutant prepared in Example 6 on P-STAT5 in different cell subsets (Tregs, CD8+T cells, NK cells) from human PBMCs (Miaoshun Biotechnology) was detected.
Human PBMC cells were thawed and resuspended to 1.5×10^6 cells/ml in RPMI1640 medium containing 10% FBS. 100 µl was added to each well of a V-bottom 96-well culture plate. Each IL-2 mutant prepared in Example 6 was diluted 10-fold in series: 1000 nM was used as the working concentration for the first well, and then 100 µl/well of each serial dilution was added to each cultured cell, stimulated at 37°C for 30 min, and the reaction was terminated on ice. The cells were treated with a commercial fixative and permeabilization agent (BD biosciences 558049 & 558050), and stained with antibodies against CD3, CD4, CD25, and CD8 according to conventional methods. P-STAT5 antibody staining was also performed (Table 7) to detect the mean fluorescence intensity (MFI) of P-STAT5 in CD3+/CD4+/CD25+ (Treg cells) and CD8+/CD3+ cells ([…]) by flow cytometry.

[6] = Pharmacokinetic study in mice, single administration, plasma concentration by ELISA; settings: 1 mg/kg s.c. single administration
Experimental: as §1

[7] = female, first-cycle dosing 50 µg/kg s.c.
[8] = female, second-cycle dosing 400 µg/kg s.c.
[9] = male, first-cycle dosing 50 µg/kg s.c.
[10] = male, second-cycle dosing 400 µg/kg s.c.

With “60K-1PEG-IL2-N88R-N77C: IL2-N88R-N77C with 60 kDa PEG conjugated to the cysteine at position 77” the “activation and proliferation of peripheral blood Treg cells” value [1] was “clear activation and proliferation”, the AUC inf [2, 7] was 181.7098 µg·h/mL and the AUClast [2, 7] was 148.6109 µg·h/mL. The CL [2, 7] was 0.28, the Cmax [2, 7] was 701.0718 ng/mL and the MRT [2, 7] was 128.4211 h. It also gave a Tmax [2, 7] of 72 h, an AUC inf [2, 8] of 2158.472 µg·h/mL and an AUClast [2, 8] of 1360.931 µg·h/mL. It also gave a CL [2, 8] of 0.19, a Cmax [2, 8] of 10419.65 ng/mL and an MRT [2, 8] of 101.9 h. It also gave a Tmax [2, 8] of 8 h, an AUC inf [2, 9] of 213.0031 µg·h/mL and an AUClast [2, 9] of 157.7992 µg·h/mL. The CL [2, 9] was 0.23, the Cmax [2, 9] was 815.2866 ng/mL and the MRT [2, 9] was 135.9233 h. It also gave a Tmax [2, 9] of 48 h, an AUC inf [2, 10] of 2122.205 µg·h/mL and an AUClast [2, 10] of 1412.112 µg·h/mL. The CL [2, 10] was 0.19, the Cmax [2, 10] was 10199.77 ng/mL and the MRT [2, 10] was 100.7 h. The Tmax [2, 10] was 8 h, the T1/2 [3] was 20.78 ± 1.92 h and the “activation peak of Treg proportion, time” value [4] was 6 days. For the same substance, the “increase in Treg proportion at peak” value [4] was “about 15 fold”, the EC50 [5] was 35.1 nM and the AUC inf [6] was 392.06252 ± 33.89153 µg·h/mL. It also gave an AUClast [6] of 380.55249 ± 34.19595 µg·h/mL, a CL [6] of 2.56±0.22 and a Cmax [6] of 6633.54 ± 581.69 ng/mL. It also gave an MRT [6] of 39.45 ± 0.44 h, a Tmax [6] of 8 to 24 h and a mean half-life [6] of 20.78 h. For the same substance, the “mean residence time (MRT)” value [6] was 39.45 h.
